Patent US20240228599A1

Biological target: cynomolgus monkey Factor B (cynomolgus monkey)
Assay: ELISA; cynomolgus Factor B coated at 5 µg/mL, mAb in 3-fold dilutions from 10 µg/mL; EC50 by Prism according to the text, headed 'Binding Affinity (M)' on the sheet

EC50: 5.56 nM
B1: anti-factor Bb monoclonal antibody M12 (antibody, V domains shown)
VH: EVQLQQSGPELVKPGASVKMSCKASGYSFTDYLMNWVKQSHGKSLEWIGRINPYNGDAFYNQRFKGKATLTVDKSSSTAHMELRSLTSEDSALYYCARLENDYGFTYWGQGTLVTVSA
VL: DIVMTQAAFSNPVTLGTSASISCSSSKSLLHSNGITYLYWYLQRPGQSPQLLIYRMSNLASGVPDRFSGSGSGTDFTLRISRVEAEDVGVYYCAQMLERPWTFGGGTKLEIK
